This note sets out measurements from paper PMC4439256 (Experimental cell research, 2015).

The target of experiment [1] is HDHB helicase domain (aa 394-958) (human, UniProt Q8NG08 394-958). Put plainly: pull-down.
Experiment [2] concerns the target T1, human DNA helicase B (human, UniProt Q8NG08 1-1087). Put plainly: pull-down.
Experiment [3] concerns the target HDHB N-terminus (aa 1-393) (human, UniProt Q8NG08 1-393). Put plainly: pull-down.
For experiment [4], the target named is T1, human DNA helicase B. Put plainly: co-IP.

T1 sequence (Q8NG08 whole entry, the tested form may be a part): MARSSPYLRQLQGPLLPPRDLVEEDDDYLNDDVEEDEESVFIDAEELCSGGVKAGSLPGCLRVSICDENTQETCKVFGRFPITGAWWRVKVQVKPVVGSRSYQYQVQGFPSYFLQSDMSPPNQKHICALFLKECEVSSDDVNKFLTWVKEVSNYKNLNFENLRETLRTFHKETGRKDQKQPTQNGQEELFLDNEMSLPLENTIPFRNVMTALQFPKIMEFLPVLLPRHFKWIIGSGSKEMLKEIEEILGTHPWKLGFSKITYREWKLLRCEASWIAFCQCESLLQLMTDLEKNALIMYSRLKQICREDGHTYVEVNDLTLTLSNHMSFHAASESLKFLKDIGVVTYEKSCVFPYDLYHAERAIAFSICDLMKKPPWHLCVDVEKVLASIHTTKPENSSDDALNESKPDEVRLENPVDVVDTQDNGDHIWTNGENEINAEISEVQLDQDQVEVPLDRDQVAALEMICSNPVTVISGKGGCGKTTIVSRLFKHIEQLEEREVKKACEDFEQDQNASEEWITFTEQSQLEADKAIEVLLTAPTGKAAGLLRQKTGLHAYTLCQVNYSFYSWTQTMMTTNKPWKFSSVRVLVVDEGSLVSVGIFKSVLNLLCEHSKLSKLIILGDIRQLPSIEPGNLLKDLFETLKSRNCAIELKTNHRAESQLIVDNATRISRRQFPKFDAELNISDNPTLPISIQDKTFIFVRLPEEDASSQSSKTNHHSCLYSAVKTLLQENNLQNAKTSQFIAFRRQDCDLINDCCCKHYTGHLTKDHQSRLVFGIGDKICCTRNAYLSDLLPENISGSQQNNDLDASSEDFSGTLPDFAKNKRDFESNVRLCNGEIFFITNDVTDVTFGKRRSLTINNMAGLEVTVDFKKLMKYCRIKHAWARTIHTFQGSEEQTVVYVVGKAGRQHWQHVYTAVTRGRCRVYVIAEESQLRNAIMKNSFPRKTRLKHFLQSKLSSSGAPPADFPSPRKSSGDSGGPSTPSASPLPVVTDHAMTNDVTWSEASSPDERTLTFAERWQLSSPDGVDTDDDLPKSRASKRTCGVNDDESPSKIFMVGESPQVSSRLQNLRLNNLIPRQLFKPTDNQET
Chain of HDHB helicase domain (aa 394-958) (Q8NG08 394-958): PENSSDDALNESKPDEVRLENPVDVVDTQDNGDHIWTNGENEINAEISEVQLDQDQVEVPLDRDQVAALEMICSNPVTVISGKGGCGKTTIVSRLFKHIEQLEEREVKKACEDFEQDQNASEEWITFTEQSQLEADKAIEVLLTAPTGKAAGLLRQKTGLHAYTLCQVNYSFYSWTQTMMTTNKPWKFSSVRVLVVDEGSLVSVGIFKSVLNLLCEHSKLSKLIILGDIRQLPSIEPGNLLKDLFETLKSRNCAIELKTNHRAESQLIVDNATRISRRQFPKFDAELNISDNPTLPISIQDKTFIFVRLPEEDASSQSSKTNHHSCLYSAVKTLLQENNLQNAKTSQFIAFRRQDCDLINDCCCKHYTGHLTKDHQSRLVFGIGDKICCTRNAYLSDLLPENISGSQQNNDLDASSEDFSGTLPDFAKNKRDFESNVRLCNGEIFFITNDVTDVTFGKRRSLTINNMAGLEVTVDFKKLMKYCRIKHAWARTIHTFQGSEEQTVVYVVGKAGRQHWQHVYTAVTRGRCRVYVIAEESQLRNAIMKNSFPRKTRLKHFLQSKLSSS
Chain of HDHB N-terminus (aa 1-393) (Q8NG08 1-393): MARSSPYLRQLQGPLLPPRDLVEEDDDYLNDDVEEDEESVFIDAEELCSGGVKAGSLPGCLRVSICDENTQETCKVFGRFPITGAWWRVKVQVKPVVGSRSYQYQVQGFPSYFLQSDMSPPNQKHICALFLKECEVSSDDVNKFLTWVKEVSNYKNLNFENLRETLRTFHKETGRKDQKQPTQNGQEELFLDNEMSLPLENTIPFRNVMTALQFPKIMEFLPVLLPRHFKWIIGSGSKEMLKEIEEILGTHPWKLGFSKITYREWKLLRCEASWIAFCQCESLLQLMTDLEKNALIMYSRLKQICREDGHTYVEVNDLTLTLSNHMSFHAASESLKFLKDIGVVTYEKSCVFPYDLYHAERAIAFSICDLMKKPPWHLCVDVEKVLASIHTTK

B1: GST-tagged Cdc45N (1-303) (domain or fragment, human, UniProt O75419 1-303, looked up)
chain: MFVSDFRKEFYEVVQSQRVLLFVASDVDALCACKILQALFQCDHVQYTLVPVSGWQELETAFLEHKEQFHYFILINCGANVDLLDILQPDEDTIFFVCDTHRPVNVVNVYNDTQIKLLIKQDDDLEVPAYEDIFRDEEEDEEHSGNDSDGSEPSEKRTRLEEEIVEQTMRRRQRREWEARRRDILFDYEQYEYHGTSSAMVMFELAWMLSKDLNDMLWWAIVGLTDQWVQDKITQMKYVTDVGVLQRHVSRHNHRNEDEENTLSVDCTRISFEYDLRLVLYQHWSLHDSLCNTSYTAARFKLW
For B1, the binding result in experiment [1], in experiment [2] and in experiment [3] was “binds” in each case.

B2: His-Cdc45 (natural protein, human, UniProt O75419 1-566, looked up)
chain: MFVSDFRKEFYEVVQSQRVLLFVASDVDALCACKILQALFQCDHVQYTLVPVSGWQELETAFLEHKEQFHYFILINCGANVDLLDILQPDEDTIFFVCDTHRPVNVVNVYNDTQIKLLIKQDDDLEVPAYEDIFRDEEEDEEHSGNDSDGSEPSEKRTRLEEEIVEQTMRRRQRREWEARRRDILFDYEQYEYHGTSSAMVMFELAWMLSKDLNDMLWWAIVGLTDQWVQDKITQMKYVTDVGVLQRHVSRHNHRNEDEENTLSVDCTRISFEYDLRLVLYQHWSLHDSLCNTSYTAARFKLWSVHGQKRLQEFLADMGLPLKQVKQKFQAMDISLKENLREMIEESANKFGMKDMRVQTFSIHFGFKHKFLASDVVFATMSLMESPEKDGSGTDHFIQALDSLSRSNLDKLYHGLELAKKQLRATQQTIASCLCTNLVISQGPFLYCSLMEGTPDVMLFSRPASLSLLSKHLLKSFVCSTKNRRCKLLPLVMAAPLSMEHGTVTVVGIPPETDSSDRKNFFGRAFEKAAESTSSRMLHNHFDLSVIELKAEDRSKFLDALISLLS
Consider B2, for which, in experiment [4], the binding result is given as “binds”.
